T1: HTRA3, P83110
T1 sequence (P83110 354-453, limits assumed, looked up): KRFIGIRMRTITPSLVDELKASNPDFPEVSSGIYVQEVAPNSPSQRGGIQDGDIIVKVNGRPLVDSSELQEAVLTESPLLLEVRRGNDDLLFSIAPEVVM

T2: RHPN1, Q8TCX5
T2 sequence (Q8TCX5 508-602, limits assumed, looked up): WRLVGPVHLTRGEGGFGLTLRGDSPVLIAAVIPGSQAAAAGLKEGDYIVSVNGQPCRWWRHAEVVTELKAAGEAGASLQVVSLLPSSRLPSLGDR

T3: DVL3, Q92997
T3 sequence (Q92997 244-331, limits assumed, looked up): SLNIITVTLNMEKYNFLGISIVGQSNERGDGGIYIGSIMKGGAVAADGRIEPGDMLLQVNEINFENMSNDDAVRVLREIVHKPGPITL

T4: MPDZ_12, O75970
T4 sequence (O75970 1857-1958, limits assumed, looked up): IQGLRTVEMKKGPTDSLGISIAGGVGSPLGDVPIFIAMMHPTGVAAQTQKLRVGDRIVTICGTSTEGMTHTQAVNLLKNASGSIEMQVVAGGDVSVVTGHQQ

T5: GRIP1_7, Q9Y3R0
T5 sequence (Q9Y3R0 999-1096, limits assumed, looked up): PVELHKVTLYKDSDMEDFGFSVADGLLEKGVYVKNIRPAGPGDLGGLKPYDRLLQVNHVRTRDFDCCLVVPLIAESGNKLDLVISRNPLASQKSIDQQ

T6: LRRC7, Q96NW7
T6 sequence (Q96NW7 1440-1537, limits assumed, looked up): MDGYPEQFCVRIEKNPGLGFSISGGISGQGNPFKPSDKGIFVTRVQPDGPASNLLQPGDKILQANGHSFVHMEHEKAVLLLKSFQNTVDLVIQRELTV

T7: CARD11, Q9BXL7
T7 sequence (Q9BXL7 662-765, limits assumed, looked up): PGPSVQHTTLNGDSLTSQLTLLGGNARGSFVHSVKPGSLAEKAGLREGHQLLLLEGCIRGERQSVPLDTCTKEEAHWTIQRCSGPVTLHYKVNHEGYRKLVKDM

T8: LNX2_3, Q8N448
T8 sequence (Q8N448 463-564, limits assumed, looked up): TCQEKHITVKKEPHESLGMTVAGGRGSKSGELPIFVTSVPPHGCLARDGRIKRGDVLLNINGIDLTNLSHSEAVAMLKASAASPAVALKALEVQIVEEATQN

T9: ARHGEF11, O15085
T9 sequence (O15085 42-136, limits assumed, looked up): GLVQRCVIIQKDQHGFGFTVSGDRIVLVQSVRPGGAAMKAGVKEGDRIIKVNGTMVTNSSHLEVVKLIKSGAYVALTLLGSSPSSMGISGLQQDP

T10: GRIP1_3, Q9Y3R0
T10 sequence (Q9Y3R0 247-346, limits assumed, looked up): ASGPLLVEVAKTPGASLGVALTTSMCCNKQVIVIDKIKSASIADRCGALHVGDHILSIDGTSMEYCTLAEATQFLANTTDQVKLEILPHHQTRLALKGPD

B1: GRIA3, P42263 (peptide)
chain: NVYGTESVKI
B2: GJA1, P17302 (peptide)
chain: SRPRPDDLEI

Target: DLG5_1, Q8TDM6
Sequence (Q8TDM6 617-713): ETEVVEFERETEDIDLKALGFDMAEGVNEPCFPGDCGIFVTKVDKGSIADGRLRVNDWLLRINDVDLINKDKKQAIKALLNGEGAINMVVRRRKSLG
Experiment: holdup assay
Set-up: key: below the threshold = too weak to quantify, mostly under pKd 3.1 to 4
Conditions: plain residues with an end cap or a label only (N-terminal biotin on a linker: ado-ado)

Row | Binder | pKd
1 | B1 | below the threshold
2 | B2 | below the threshold

Target: T1, HTRA3, P83110
Experiment: holdup assay
Set-up: key: below the threshold = too weak to quantify, mostly under pKd 3.1 to 4
Conditions: plain residues with an end cap or a label only (N-terminal biotin on a linker: ado-ado)

Row | Binder | pKd
3 | B1 | below the threshold
4 | B2 | below the threshold

Target: LDB3, O75112
Sequence (O75112 1-94): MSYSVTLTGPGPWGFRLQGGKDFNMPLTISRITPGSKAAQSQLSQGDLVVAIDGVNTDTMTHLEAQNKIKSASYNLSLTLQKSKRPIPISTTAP
Experiment: holdup assay
Set-up: key: below the threshold = too weak to quantify, mostly under pKd 3.1 to 4
Conditions: plain residues with an end cap or a label only (N-terminal biotin on a linker: ado-ado)

Row | Binder | pKd
5 | B1 | below the threshold
6 | B2 | below the threshold

Target: T2, RHPN1, Q8TCX5
Experiment: holdup assay
Set-up: key: below the threshold = too weak to quantify, mostly under pKd 3.1 to 4
Conditions: plain residues with an end cap or a label only (N-terminal biotin on a linker: ado-ado)

Row | Binder | pKd
7 | B1 | below the threshold
8 | B2 | below the threshold

Target: LNX1_3, Q8TBB1
Sequence (Q8TBB1 500-596): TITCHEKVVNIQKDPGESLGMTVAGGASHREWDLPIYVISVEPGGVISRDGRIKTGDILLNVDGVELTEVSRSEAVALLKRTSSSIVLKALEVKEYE
Experiment: holdup assay
Set-up: key: below the threshold = too weak to quantify, mostly under pKd 3.1 to 4
Conditions: plain residues with an end cap or a label only (N-terminal biotin on a linker: ado-ado)

Row | Binder | pKd
9 | B1 | below the threshold
10 | B2 | below the threshold

Target: SCRIB_1, Q14160
Sequence (Q14160 718-814): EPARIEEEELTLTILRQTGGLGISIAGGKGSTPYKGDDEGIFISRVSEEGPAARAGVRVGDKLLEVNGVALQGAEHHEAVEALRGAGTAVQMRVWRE
Experiment: holdup assay
Set-up: key: below the threshold = too weak to quantify, mostly under pKd 3.1 to 4
Conditions: plain residues with an end cap or a label only (N-terminal biotin on a linker: ado-ado)

Row | Binder | pKd
11 | B1 | below the threshold
12 | B2 | below the threshold

Target: MAGI2_3, Q86UL8
Sequence (Q86UL8 600-682): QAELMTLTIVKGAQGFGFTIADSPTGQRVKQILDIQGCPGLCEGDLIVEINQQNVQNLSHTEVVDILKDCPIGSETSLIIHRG
Experiment: holdup assay
Set-up: key: below the threshold = too weak to quantify, mostly under pKd 3.1 to 4
Conditions: plain residues with an end cap or a label only (N-terminal biotin on a linker: ado-ado)

Row | Binder | pKd
13 | B1 | below the threshold
14 | B2 | below the threshold

Target: T3, DVL3, Q92997
Experiment: holdup assay
Set-up: key: below the threshold = too weak to quantify, mostly under pKd 3.1 to 4
Conditions: plain residues with an end cap or a label only (N-terminal biotin on a linker: ado-ado)

Row | Binder | pKd
15 | B1 | below the threshold
16 | B2 | below the threshold

Target: T4, MPDZ_12, O75970
Experiment: holdup assay
Set-up: key: below the threshold = too weak to quantify, mostly under pKd 3.1 to 4
Conditions: plain residues with an end cap or a label only (N-terminal biotin on a linker: ado-ado)

Row | Binder | pKd
17 | B1 | below the threshold
18 | B2 | below the threshold

Target: TJP1_2, Q07157
Sequence (Q07157 181-274): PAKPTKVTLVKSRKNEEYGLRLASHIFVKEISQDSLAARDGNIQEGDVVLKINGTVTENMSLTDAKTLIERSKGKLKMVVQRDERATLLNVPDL
Experiment: holdup assay
Set-up: key: below the threshold = too weak to quantify, mostly under pKd 3.1 to 4
Conditions: plain residues with an end cap or a label only (N-terminal biotin on a linker: ado-ado)

Row | Binder | pKd
19 | B1 | 3.59
20 | B2 | 4.53

Target: GRASP, Q7Z6J2
Sequence (Q7Z6J2 96-193): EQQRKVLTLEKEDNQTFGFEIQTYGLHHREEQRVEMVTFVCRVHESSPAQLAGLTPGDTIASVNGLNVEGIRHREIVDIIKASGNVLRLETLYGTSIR
Experiment: holdup assay
Set-up: key: below the threshold = too weak to quantify, mostly under pKd 3.1 to 4
Conditions: plain residues with an end cap or a label only (N-terminal biotin on a linker: ado-ado)

Row | Binder | pKd
21 | B1 | below the threshold
22 | B2 | below the threshold

Target: NHERF4_4, Q86UT5
Sequence (Q86UT5 464-550): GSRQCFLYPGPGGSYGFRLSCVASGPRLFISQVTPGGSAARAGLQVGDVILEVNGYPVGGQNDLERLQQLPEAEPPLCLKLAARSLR
Experiment: holdup assay
Set-up: key: below the threshold = too weak to quantify, mostly under pKd 3.1 to 4
Conditions: plain residues with an end cap or a label only (N-terminal biotin on a linker: ado-ado)

Row | Binder | pKd
23 | B1 | 3.95
24 | B2 | below the threshold

Target: T5, GRIP1_7, Q9Y3R0
Experiment: holdup assay
Set-up: key: below the threshold = too weak to quantify, mostly under pKd 3.1 to 4
Conditions: plain residues with an end cap or a label only (N-terminal biotin on a linker: ado-ado)

Row | Binder | pKd
25 | B1 | below the threshold
26 | B2 | below the threshold

Target: T6, LRRC7, Q96NW7
Experiment: holdup assay
Set-up: key: below the threshold = too weak to quantify, mostly under pKd 3.1 to 4
Conditions: plain residues with an end cap or a label only (N-terminal biotin on a linker: ado-ado)

Row | Binder | pKd
27 | B1 | below the threshold
28 | B2 | below the threshold

Target: T7, CARD11, Q9BXL7
Experiment: holdup assay
Set-up: key: below the threshold = too weak to quantify, mostly under pKd 3.1 to 4
Conditions: plain residues with an end cap or a label only (N-terminal biotin on a linker: ado-ado)

Row | Binder | pKd
29 | B1 | below the threshold
30 | B2 | below the threshold

Target: Inadl_10, Q8NI35
Sequence (Q8NI35 1673-1763): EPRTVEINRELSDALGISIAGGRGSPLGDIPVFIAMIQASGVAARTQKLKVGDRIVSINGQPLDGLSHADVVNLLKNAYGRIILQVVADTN
Experiment: holdup assay
Set-up: key: below the threshold = too weak to quantify, mostly under pKd 3.1 to 4
Conditions: plain residues with an end cap or a label only (N-terminal biotin on a linker: ado-ado)

Row | Binder | pKd
31 | B1 | below the threshold
32 | B2 | below the threshold

Target: GRIP2_5, Q9C0E4
Sequence (Q9C0E4 544-642): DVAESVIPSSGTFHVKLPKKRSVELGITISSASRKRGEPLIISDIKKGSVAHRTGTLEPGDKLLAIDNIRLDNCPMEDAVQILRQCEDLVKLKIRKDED
Experiment: holdup assay
Set-up: key: below the threshold = too weak to quantify, mostly under pKd 3.1 to 4
Conditions: plain residues with an end cap or a label only (N-terminal biotin on a linker: ado-ado)

Row | Binder | pKd
33 | B1 | below the threshold
34 | B2 | below the threshold

Target: LNX1_1, Q8TBB1
Sequence (Q8TBB1 261-371): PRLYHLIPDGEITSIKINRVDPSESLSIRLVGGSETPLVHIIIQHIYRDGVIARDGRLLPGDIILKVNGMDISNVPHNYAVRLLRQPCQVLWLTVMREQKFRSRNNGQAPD
Experiment: holdup assay
Set-up: key: below the threshold = too weak to quantify, mostly under pKd 3.1 to 4
Conditions: plain residues with an end cap or a label only (N-terminal biotin on a linker: ado-ado)

Row | Binder | pKd
35 | B1 | below the threshold
36 | B2 | below the threshold

Target: T8, LNX2_3, Q8N448
Experiment: holdup assay
Set-up: key: below the threshold = too weak to quantify, mostly under pKd 3.1 to 4
Conditions: plain residues with an end cap or a label only (N-terminal biotin on a linker: ado-ado)

Row | Binder | pKd
37 | B1 | below the threshold
38 | B2 | below the threshold

Target: NHERF4_2, Q86UT5
Sequence (Q86UT5 220-308): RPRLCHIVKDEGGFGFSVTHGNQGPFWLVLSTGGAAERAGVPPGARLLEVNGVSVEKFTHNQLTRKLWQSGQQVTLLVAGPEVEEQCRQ
Experiment: holdup assay
Set-up: key: below the threshold = too weak to quantify, mostly under pKd 3.1 to 4
Conditions: plain residues with an end cap or a label only (N-terminal biotin on a linker: ado-ado)

Row | Binder | pKd
39 | B1 | below the threshold
40 | B2 | below the threshold

Target: PDZRN4_1, Q6ZMN7
Sequence (Q6ZMN7 213-318): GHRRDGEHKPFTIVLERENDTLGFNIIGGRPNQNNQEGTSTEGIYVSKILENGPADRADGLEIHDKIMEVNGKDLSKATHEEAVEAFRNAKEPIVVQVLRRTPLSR
Experiment: holdup assay
Set-up: key: below the threshold = too weak to quantify, mostly under pKd 3.1 to 4
Conditions: plain residues with an end cap or a label only (N-terminal biotin on a linker: ado-ado)

Row | Binder | pKd
41 | B1 | below the threshold
42 | B2 | below the threshold

Target: TJP1_3, Q07157
Sequence (Q07157 416-512): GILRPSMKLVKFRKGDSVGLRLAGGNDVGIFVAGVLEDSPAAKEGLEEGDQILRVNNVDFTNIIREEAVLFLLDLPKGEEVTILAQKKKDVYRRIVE
Experiment: holdup assay
Set-up: key: below the threshold = too weak to quantify, mostly under pKd 3.1 to 4
Conditions: plain residues with an end cap or a label only (N-terminal biotin on a linker: ado-ado)

Row | Binder | pKd
43 | B1 | below the threshold
44 | B2 | below the threshold

Target: NHERF4_1, Q86UT5-2
Sequence (Q86UT5 other isoform, or with tags, fused parts or gaps): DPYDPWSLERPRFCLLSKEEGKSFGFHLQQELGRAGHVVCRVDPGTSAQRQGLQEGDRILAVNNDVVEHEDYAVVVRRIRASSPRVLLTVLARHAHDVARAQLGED
Experiment: holdup assay
Set-up: key: below the threshold = too weak to quantify, mostly under pKd 3.1 to 4
Conditions: plain residues with an end cap or a label only (N-terminal biotin on a linker: ado-ado)

Row | Binder | pKd
45 | B1 | 3.57
46 | B2 | below the threshold

Target: MAGI1_2, Q96QZ7
Sequence (Q96QZ7 456-580): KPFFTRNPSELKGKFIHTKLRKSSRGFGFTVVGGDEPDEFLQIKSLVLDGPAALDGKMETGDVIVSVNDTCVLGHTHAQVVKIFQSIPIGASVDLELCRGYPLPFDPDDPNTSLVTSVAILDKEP
Experiment: holdup assay
Set-up: key: below the threshold = too weak to quantify, mostly under pKd 3.1 to 4
Conditions: plain residues with an end cap or a label only (N-terminal biotin on a linker: ado-ado)

Row | Binder | pKd
47 | B1 | below the threshold
48 | B2 | below the threshold

Target: T9, ARHGEF11, O15085
Experiment: holdup assay
Set-up: key: below the threshold = too weak to quantify, mostly under pKd 3.1 to 4
Conditions: plain residues with an end cap or a label only (N-terminal biotin on a linker: ado-ado)

Row | Binder | pKd
49 | B1 | below the threshold
50 | B2 | below the threshold

Target: T10, GRIP1_3, Q9Y3R0
Experiment: holdup assay
Set-up: key: below the threshold = too weak to quantify, mostly under pKd 3.1 to 4
Conditions: plain residues with an end cap or a label only (N-terminal biotin on a linker: ado-ado)

Row | Binder | pKd
51 | B1 | below the threshold
52 | B2 | below the threshold

Target: IL16_1, Q14005
Sequence (Q14005 210-306): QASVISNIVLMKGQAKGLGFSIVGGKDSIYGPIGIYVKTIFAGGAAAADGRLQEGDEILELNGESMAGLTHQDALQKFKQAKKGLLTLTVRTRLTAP
Experiment: holdup assay
Set-up: key: below the threshold = too weak to quantify, mostly under pKd 3.1 to 4
Conditions: plain residues with an end cap or a label only (N-terminal biotin on a linker: ado-ado)

Row | Binder | pKd
53 | B1 | below the threshold
54 | B2 | below the threshold

Target: GIPC2, Q8TF65
Sequence (Q8TF65 112-203): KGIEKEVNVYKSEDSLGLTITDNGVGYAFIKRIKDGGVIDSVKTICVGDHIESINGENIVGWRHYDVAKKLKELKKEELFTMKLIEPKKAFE
Experiment: holdup assay
Set-up: key: below the threshold = too weak to quantify, mostly under pKd 3.1 to 4
Conditions: plain residues with an end cap or a label only (N-terminal biotin on a linker: ado-ado)

Row | Binder | pKd
55 | B1 | below the threshold
56 | B2 | below the threshold

— paper PMC9482650, “Quantitative fragmentomics allow affinity mapping of interactomes” (Nature Communications, 2022)
